In PMC10412621 one finds stoichiometry N data, which are given here for one substance.

This assay deals with full-length human leucine-rich repeat kinase 1 (LRRK1, residues 1-2015) (human) (UniProt Q38SD2). Description: mass photometry; undiluted 'monomer' and 'dimer' gel filtration fractions added to detergent-free buffer (20 mM Tris, 150 mM NaCl, 5 mM MgCl2 pH 8.3); OneMP mass photometer; dimer fraction held monomers and dimers at approximately a 1:2 ratio, alongside higher-order species. In general terms: In gel filtration, larger molecules generally elute earlier.

Consider “full-length human leucine-rich repeat kinase 1 (LRRK1, residues 1-2015) (from UniProt Q38SD2 1-2015) (enzyme)”, for which the stoichiometry N was 2.

A word on the stoichiometry N: it is the number of molecules, sites or subunits per partner or assembly.
